Test [1] addresses T1, TGF-β3 (UniProt P10600 301-412).
T1 sequence (looked up): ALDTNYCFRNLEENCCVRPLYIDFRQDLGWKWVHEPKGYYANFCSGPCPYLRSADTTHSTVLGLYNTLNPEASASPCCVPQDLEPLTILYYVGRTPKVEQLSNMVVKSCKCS
The test is described as follows: SPR (Biacore 3000), fusion protein immobilised on CM5 chip, TGF-β3 injected. The procedure: (§1) Surface plasma resonance (SPR) analysis was performed using Biacore3000, CM5 chip, an amine-coupling kit, 10×HBS-P running buffer and Glycine for regeneration (GE Healthcare). […] Dissociation was allowed to proceed followed by a pulse of 10 mM Glycine (pH 1.5) for regeneration of the chip surface.
On the technique in general: SPR reads the build-up and loss of mass on a sensor chip optically.

The target of test [2] is T2, TGF-β1 (UniProt P01137 279-390). The test is described as follows: cell-based or functional assay.
Test [3] concerns the target T2, TGF-β1. The test is described as follows: SPR (Biacore 3000), fusion protein immobilised on CM5 chip, TGF-β1 injected. The procedure:
as §1

Test [4] deals with T1, TGF-β3. The experiment in a line: cell-based or functional assay.
The next test deals with T3, TGF-β2 (UniProt P61812 303-414).
T3 sequence (looked up): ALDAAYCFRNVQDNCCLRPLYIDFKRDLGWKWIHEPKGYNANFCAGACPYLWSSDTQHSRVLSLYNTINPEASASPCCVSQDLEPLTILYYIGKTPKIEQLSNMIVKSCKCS
The test is described as follows: SPR (Biacore 3000), fusion protein immobilised on CM5 chip, TGF-β2 injected. The protocol:
as §1

Test [5] has as its target T4, PD-1 Fc fusion protein (UniProt Q15116 25-167, limits assumed).
T4 construct: Antigen immobilised on the CM5 chip in all PD-1 SPR assays; also called PD-1 fused to human Fc region; PD-1-Fc antigen; not shown: human Fc region
The experiment in a line: SPR (Biacore 3000), PD-1 Fc immobilised on CM5 chip, fusion protein injected. The protocol: as §1

Test [6] has as its target T5, PD-1 (programmed cell death protein 1), on cells (UniProt Q15116 25-288, limits assumed). The test is described as follows: cell-based or functional assay.
Test [7] concerns the target T4, PD-1 Fc fusion protein. The test is described as follows: SPR (Biacore 3000), recombinant PD-1 Fc immobilised on CM5 chip, fusion protein injected. The procedure:
Surface plasma resonance (SPR) analysis was performed using Biacore3000, CM5 chip, an amine-coupling kit, 10×HBS-P running buffer and Glycine for. […] Dissociation was allowed to proceed followed by regeneration of the chip surface.

Test [8] has as its target T5, PD-1 (programmed cell death protein 1), …. The test is described as follows: cell-based or functional assay. This is another data set of the same source.

Consider four molecules from patent US20240141045A1 (PRECIGEN, published 2024).

T2 sequence (P01137 279-390 limits assumed): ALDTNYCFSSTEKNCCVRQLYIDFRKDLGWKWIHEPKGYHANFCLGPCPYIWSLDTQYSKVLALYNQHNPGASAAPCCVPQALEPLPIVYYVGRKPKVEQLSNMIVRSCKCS
T4 sequence (Q15116 25-167 limits assumed): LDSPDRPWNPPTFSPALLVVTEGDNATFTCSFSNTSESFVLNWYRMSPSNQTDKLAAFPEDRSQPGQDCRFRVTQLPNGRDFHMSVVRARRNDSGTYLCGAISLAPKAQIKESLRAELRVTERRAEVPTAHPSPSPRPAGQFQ
T5 sequence (Q15116 25-288 limits assumed): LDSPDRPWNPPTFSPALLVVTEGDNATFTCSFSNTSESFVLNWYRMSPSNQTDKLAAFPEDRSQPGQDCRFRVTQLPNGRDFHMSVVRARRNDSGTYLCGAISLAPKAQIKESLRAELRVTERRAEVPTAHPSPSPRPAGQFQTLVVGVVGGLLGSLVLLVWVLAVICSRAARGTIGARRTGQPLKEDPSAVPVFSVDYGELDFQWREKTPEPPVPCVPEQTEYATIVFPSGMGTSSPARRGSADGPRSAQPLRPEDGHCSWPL

B1: Anti-PD1(VH6-VL5) IgG4-TGFβRII (antibody)
heavy: QVQLVESGGGVVQPGRSLRLDCKASGITFSNSGMHWVRQAPGKGLEWVAVIWYDGSKRYYADSVKGRFTISRDNSKNTLFLQMNSLRAEDTAVYYCATNDDYWGQGTLVTVSSASTKGPSVFPLAPCSRSTSESTAALGCLVKDYFPEPVTVSWNSGALTSGVHTFPAVLQSSGLYSLSSVVTVPSSSLGTKTYTCNVDHKPSNTKVDKRVESKYGPPCPSCPAPEFLGGPSVFLFPPKPKDTLMISRTPEVTCVVVDVSQEDPEVQFNWYVDGVEVHNAKTKPREEQFNSTYRVVSVLTVLHQDWLNGKEYKCKVSNKGLPSSIEKTISKAKGQPREPQVYTLPPSQEEMTKNQVSLTCLVKGFYPSDIAVEWESNGQPENNYKTTPPVLDSDGSFFLYSRLTVDKSRWQEGNVFSCSVMHEALHNHYTQKSLSLSPGKGGGGSGGGGSIPPHVQKSVNNDMIVTDNNGAVKFPQLCKFCDVRFSTCDNQKSCMSNCSITSICEKPQEVCVAVWRKNDENITLETVCHDPKLPYHDFILEDAASPKCIMKEKKKPGETFFMCSCSSDECNDNIIFSEEYNTSNPD
light: not shown
notes: IgG4 antibody with TGFβRII ECD fused to the C-terminus of the heavy chain; also called anti-PD-1 IgG4 antibody (VH6-VL5)-TGFβRII fusion protein; VH6-IgG4(wt)-linker-ECD with VL5
As usually defined, the Kd is the concentration at which binding is half-saturated. Take B1: the values for the dissociation constant Kd with TGF-β3 [1], with TGF-β1 [3] and in the test with TGF-β2 were 2.19 pM, 5.22 pM and 859 pM, respectively. In addition, in the test with TGF-β1 [2], the “IC50; neutralisation of TGF-β1 signalling, HEK-Blue TGF-β reporter cells (SEAP, absorbance 620 nM)” value came out at 14.9 pM. Also, the “IC50; neutralisation of TGF-β3 signalling, HEK-Blue TGF-β reporter cells (SEAP, absorbance 620 nM)” value in the test with TGF-β3 [4] was 6.7 pM.

B2: Anti-PD1(VH6-VL5) IgG1-TGFβRII (antibody)
VH: QVQLVESGGGVVQPGRSLRLDCKASGITFSNSGMHWVRQAPGKGLEWVAVIWYDGSKRYYADSVKGRFTISRDNSKNTLFLQMNSLRAEDTAVYYCATNDDYWGQGTLVTVSS
VL: EIVLTQSPATLSLSPGERATLSCRASQSVSSYLAWYQQKPGQAPRLLIYDASNRATGIPARFSGSGSGTDFTLTISSLEPEDFAVYYCQQSSNWPRTFGQGTKVEIK
chain: GGGGSGGGGSIPPHVQKSVNNDMIVTDNNGAVKFPQLCKFCDVRFSTCDNQKSCMSNCSITSICEKPQEVCVAVWRKNDENITLETVCHDPKLPYHDFILEDAASPKCIMKEKKKPGETFFMCSCSSDECNDNIIFSEEYNTSNPD
notes: not shown: light-chain constant region (not tied to the IgG1 format); copies: 2 + 2 + 2
For B2, binding with PD-1 Fc fusion protein [5] was characterised by a dissociation constant (Kd) of 7.64 pM. Also, in the test with TGF-β1 [2], the “IC50; neutralisation of TGF-β1 signalling, HEK-Blue TGF-β reporter cells (SEAP, absorbance 620 nM)” value came to 12.7 pM. The “IC50; neutralisation of TGF-β3 signalling, HEK-Blue TGF-β reporter cells (SEAP, absorbance 620 nM)” value with TGF-β3 [4] worked out at 5.3 pM. Further, in test [6], the “IC50; PD-1/PD-L1 blockade bioassay (PD-1 effector cells with PD-L1 aAPC/CHO-K1 cells, luciferase RLU)” value turned out to be 9500 pM.

B3: Anti-PD1(VH6-VL5) scFv-TGFβRII (scFv)
chain 1: B2 VH
chain 2: B2 VL
chain 3: B2 chain
B3: the dissociation constant (Kd) with PD-1 Fc fusion protein [5] stood at 19700 pM.

B4: Anti-PD1 (VH6-VL5) IgG1-ADA2 (antibody)
heavy (part 1 of 2): B2 VH
heavy (part 2 of 2): GGGGSGGGGSSIDETRAHLLLKEKMMRLGGRLVLNTKEELANERLMTLKIAEMKEAMRTLIFPPSMHFFQAKHLIERSQVFNILRMMPKGAALHLHDIGIVTMDWLVRNVTYRPHCHICFTPRGIMQFRFAHPTPRPSEKCSKWILLEDYRKRVQNVTEFDDSLLRNFTLVTQHPEVIYTNQNVVWSKFETIFFTISGLIHYAPVFRDYVFRSMQEFYEDNVLYMEIRARLLPVYELSGEHHDEEWSVKTYQEVAQKFVETHPEFIGIKIIYSDHRSKDVAVIAESIRMAMGLRIKFPTVVAGFDLVGHEDTGHSLHDYKEALMIPAKDGVKLPYFFHAGETDWQGTSIDRNILDALMLNTTRIGHGFALSKHPAVRTYSWKKDIPIEVCPISNQVLKLVSDLRNHPVATLMATGHPMVISSDDPAMFGAKGLSYDFYEVFMGIGGMKADLRTLKQLAMNSIKYSTLLESEKNTFMEIWKKRWDKFIADVATK
light: B2 VL
notes: also called anti-PD1 (VH6/VL5) hIgG1-ADA2; not shown: IgG1 (hIgG1) heavy chain constant region; light chain constant region
Regarding B4, in the test with PD-1 Fc fusion protein [7], the dissociation constant Kd was determined as 0.309 pM. In test [8], the “EC50 (read off the curve); PD-1/PD-L1 blockade reporter bioassay (luciferase RLU)” value is ~0.6 µg/mL.
